{
  "source": "patent US8614103B2",
  "about": "“Compositions and methods for treating sphingosine-1-phosphate (S1P) related ocular diseases and conditions” (Lpath, Inc., priority 2006, dated 2013)",
  "key": {"[1]": {"assay": "Competitive ELISA for specificity / cross-reactivity against bioactive lipids", "format": "binding", "conditions": "for cross-reactivity to sphingosylphosphorylcholine (SPC): competitor SPC", "protocol": "Screening of serum and cell supernatant for S1P-specific antibodies was by direct ELISA using a thiolated SIP analog as the antigen. A standard ELISA was performed, as described below, except that 50 ul of sample (serum or cell supernatant) was diluted with an equal volume of PBS/0.1% Tween-20 (PBST) during the primary incubation. ELISAs were performed in 96-well high binding ELISA plates (Costar) coated with 0.1 μg of chemically-synthesized thiolated-S1P conjugated to BSA in binding buffer (33.6 mM Na2CO3, 100 mM NaHCO3; pH 9.5). The thiolated-S1P-BSA was incubated at 37° C. for 1 hr. at 4° C. overnight in the ELISA plate wells. The plates were then washed four times with PBS (137 mM NaCl, 2.68 mM KCl, 10.14 mM Na2HPO4, 1.76 mM KH2PO4; pH 7.4) and blocked with PBST for 1 hr. at room temperature. For the primary incubation step, 75 uL of the sample (containing the S1P to be measured), was incubated with 25 uL of 0.1 ug/mL anti-S1P mAb diluted in PBST and added to a well of the ELISA plate. Each sample was performed in triplicate wells. Following a 1 hr. incubation at room temperature, the ELISA plates were washed four times with PBS and incubated with 100 ul per well of 0.1 ug/mL HRP goat anti-mouse secondary (Jackson Immunoresearch) for 1 hr. at room temperature. Plates were then washed four times with PBS and exposed to tetramethylbenzidine (Sigma) for 1-10 minutes. The detection reaction was stopped by the addition of an equal volume of 1M H2SO4. Optical density of the samples was determined by measurement at 450 nm using an EL-X-800 ELISA plate reader (Bio-Tech).\nFor cross reactivity, a competitive ELISA was performed as described above, except for the following alterations. The primary incubation consisted of the competitor (S1P, SPH, LPA, etc.) and a biotin-conjugated anti-S1P mAb. Biotinylation of the purified monoclonal antibody was performed using the EZ-Link Sulfo-NHS-Biotinylation kit (Pierce). Biotin incorporation was determined as per kit protocol and ranged from 7 to 11 biotin molecules per antibody. The competitor was prepared as follows: lipid stocks were sonicated and dried under argon before reconstitution in DPBS/BSA [1 mg/ml fatty acid free BSA (Calbiochem) in DPBS (Invitrogen 14040-133)]. Purified anti-S1P mAb was diluted as necessary in PBS/0.5% Triton X-100. Competitor and antibody solutions were mixed together so to generate 3 parts competitor to 1 part antibody. A HRP-conjugated streptavidin secondary antibody (Jackson Immunoresearch) was used to generate signal.\nThe humanized variants were tested for specificity in a competitive ELISA assay (FIG. 1) against S1P and several other biolipids. This assay has the added benefit to allow for epitope mapping."}, "CNV lesions": {"test_system": "CNV lesions", "assay": "Murine laser-induced CNV model (Example 4)", "format": "in vivo, mouse", "conditions": "0.5 μg", "protocol": "Female C57BL6/J mice were subjected to laser-induced rupture of Bruch's membrane and administered either 0.5 μg of Sphingomab or an isotype-matched non-specific (NS) antibody diluted in 2 μl of physiological saline. Mice were sacrificed 14 and 28 days after laser rupture.\nTo induce CNV lesions, the pupils were dilated with ophthalmic tropicamide (0.5%) and phenylephrine (2.5%). A coverslip was placed on the eye. An Oculight GL 532 nm (Iridex Corporation, Mountain View, Calif.) coupled to a slit lamp set to deliver a 100 msec pulse at 150 mW with a 50 μm spot size was used to rupture Bruch's membrane in three quadrants of the right eye located approximately 50 μm from the optic disc at relative 9, 12 and 3 o'clock positions. The left eye served as an uninjured control in all cases. Any lesion not associated with a vapor bubble or lesions that became confluent were excluded from analysis. […]\nTo assess collagen deposition, the sclera-choroid-RPE complex was stained with Masson's Trichrome. […] Approximately 30 sections per lesion were evaluated. Quantitation of the volume of collagen deposition was calculated in the same manner as described for CNV lesion volume.\nCaptured digital images were evaluated morphometrically using ImageJ software (Research Services Branch, National Institutes of Health, Bethesda, Md.)."}, "HUVECs": {"test_system": "HUVECs", "assay": "HUVEC tube formation on Matrigel", "format": "cell-based, human", "conditions": "co-incubated with S1P; GF-reduced Matrigel", "protocol": "Experiments were performed as described by Visentin et al. (Cancer Cell 2006 March; 9(3):225-38)."}},
  "data": [
    {"molecule": "LT1002: murine monoclonal antibody to S1P, IgG1 kappa, hybridoma clone 306D326.26 (antibody, listed as Mus sp., V domains shown) VH: QAHLQQSDAELVKPGASVKISCKVSGFIFIDHTIHWMKQRPEQGLEWIGCISPRHDITKYNEMFRGKATLTADKSSTTAYIQVNSLTFEDSAVYFCARGGFYGSTIWFDFWGQGTTLTVS VL: ETTVTQSPASLSMAIGEKVTIRCITTTDIDDDMNWFQQKPGEPPNLLISEGNILRPGVPSRFSSSGYGTDFLFTIENMLSEDVADYYCLQSDNLPFTFGSGTKLEIK", "values": [
      {"measurement": "Specificity (ELISA)", "setting": "[1]; Table 7", "value": "High"},
      {"measurement": "recognition of ceramide-1-phosphate (C1P)", "setting": "[1]; competitor C1P, listed as anti-S1P mAb", "value": "no antibody binding was observed"},
      {"measurement": "cross-reactivity to dihydrosphingosine-1-phosphate (DH-S1P)", "setting": "[1]; competitor DH-S1P", "value": "did cross react"},
      {"measurement": "cross-reactivity to lysophosphatidic acid (LPA)", "setting": "[1]; competitor LPA, listed as anti-S1P mAb", "value": "exhibited no binding"},
      {"measurement": "cross-reactivity to sphingosylphosphorylcholine (SPC)", "setting": "[1]; listed as SPHINGOMAB", "value": "to a lesser extent"},
      {"measurement": "cross-reactivity to sphingosylphosphorylcholine (SPC)", "setting": "[1]; listed as anti-S1P mAb", "value": "binding was somewhat reduced"},
      {"measurement": "choroidal neovascularization", "setting": "CNV lesions; 14 and 28 days after laser-induced rupture of Bruch's membrane", "value": "dramatically attenuates"},
      {"measurement": "fibrosis associated with CNV lesion formation", "setting": "CNV lesions; 28 days after laser rupture, Masson's Trichrome", "value": "significantly reduces"},
      {"measurement": "capillary-like structure (tube) formation", "setting": "HUVECs", "value": "failed to form capillary-like structures"}
    ]}
  ]
}
